B1: EGF: growth factor (protein, UniProt P01133 23-1207, looked up)
Pro-epidermal growth factor: PQHWSCPEGTLAGNGNSTCVGPAPFLIFSHGNSIFRIDTEGTNYEQLVVDAGVSVIMDFHYNEKRIYWVDLERQLLQRVFLNGSRQERVCNIEKNVSGMAINWINEEVIWSNQQEGIITVTDMKGNNSHILLSALKYPANVAVDPVERFIFWSSEVAGSLYRADLDGVGVKALLETSEKITAVSLDVLDKRLFWIQYNREGSNSLICSCDYDGGSVHISKHPTQHNLFAMSLFGDRIFYSTWKMKTIWIANKHTGKDMVRINLHSSFVPLGELKVVHPLAQPKAEDDTWEPEQKLCKLRKGNCSSTVCGQDLQSHLCMCAEGYALSRDRKYCEDVNECAFWNHGCTLGCKNTPGSYYCTCPVGFVLLPDGKRCHQLVSCPRNVSECSHDCVLTSEGPLCFCPEGSVLERDGKTCSGCSSPDNGGCSQLCVPLSPVSWECDCFPGYDLQLDEKSCAASGPQPFLLFANSQDIRHMHFDGTDYGTLLSQQMGMVYALDHDPVENKIYFAHTALKWIERANMDGSQRERLIEEGVDVPEGLAVDWIGRRFYWTDRGKSLIGRSDLNGKRSKIITKENISQPRGIAVHPMAKRLFWTDTGINPRIESSSLQGLGRLVIASSDLIWPSGITIDFLTDKLYWCDAKQSVIEMANLDGSKRRRLTQNDVGHPFAVAVFEDYVWFSDWAMPSVMRVNKRTGKDRVRLQGSMLKPSSLVVVHPLAKPGADPCLYQNGGCEHICKKRLGTAWCSCREGFMKASDGKTCLALDGHQLLAGGEVDLKNQVTPLDILSKTRVSEDNITESQHMLVAEIMVSDQDDCAPVGCSMYARCISEGEDATCQCLKGFAGDGKLCSDIDECEMGVPVCPPASSKCINTEGGYVCRCSEGYQGDGIHCLDIDECQLGEHSCGENASCTNTEGGYTCMCAGRLSEPGLICPDSTPPPHLREDDHHYSVRNSDSECPLSHDGYCLHDGVCMYIEALDKYACNCVVGYIGERCQYRDLKWWELRHAGHGQQQKVIVVAVCVVVLVMLLLLSLWGAHYYRTQKLLSKNPKNPYEESSRDVRSRRPADTEDGMSSCPQPWFVVIKEHQDLKNGGQPVAGEDGQAADGSMQPTSWRQEPQLCGMGTEQGCWIPVSSDKGSCPQVMERSFHMPSYGTQTLEGGVEKPHSLLSANPLWQQRALDPPHQMELTQ
modifications: Pro-epidermal growth factor
B2: PDGFBB: growth factor (protein, UniProt P01127 82-190, looked up)
Platelet-derived growth …: SLGSLTIAEPAMIAECKTRTEVFEISRRLIDRTNANFLVWPPCVEVQRCSGCCNNRNVQCRPTQVQLRPVQVRKIEIVRKKPIFKKATVTLEDHLACKCETVAAARPVT
modifications: BB homodimer
notes: growth factor

Test system: MSCs
Assay: Protocol 3 differentiation of MSCs to hybrid cells with growth factors
Assay type: cell-based
Conditions: individually and in combination, as replacements or in combination with HGF and PDGF
Procedure: A shortened third protocol (Protocol 3) was examined and was also found to produce MSC-muscle cell hybrid cells. The MSCs were cultured in normal MSC culturing conditions followed by supplementation of the media for 24 hours with 5-AZA. The cells were than grown in media supplemented with 2% horse serum and HGF and PDGF for 2 weeks. […] The following growth factors were tested both individually and in combination as replacements or in combination with HGF and PDGF: EGF, IGF1, PDGFAA, PDGFBB, and VEGF. […] Additionally, the protocol could be halted by moving the treated MSCs to non-supplemented MSC media. Hybrid cells that were produced could thus be halted from further differentiation.
All three protocols were also performed with MSCs that had first undergone myogenic priming as described above.

| Molecule | production of hybrid cells from MSCs |
| --- | --- |
| B1 | found to produce hybrid cells |
| B2 | found to produce hybrid cells |
